{"source": "paper PMC9188649", "about": "(Molecular cell, 2022)", "proteins": {"B1": {"name": "hSARM1 (residues 28–724), sample for cryo-EM (enzyme, human, UniProt Q6SZW1 28-724, looked up)", "chain": "LAVPGPDGGGGTGPWWAAGGRGPREVSPGAGTEVQDALERALPELQQALSALKQAGGARAVGAGLAEVFQLVEEAWLLPAVGREVAQGLCDAIRLDGGLDLLLRLLQAPELETRVQAARLLEQILVAENRDRVARIGLGVILNLAKEREPVELARSVAGILEHMFKHSEETCQRLVAAGGLDAVLYWCRRTDPALLRHCALALGNCALHGGQAVQRRMVEKRAAEWLFPLAFSKEDELLRLHACLAVAVLATNKEVEREVERSGTLALVEPLVASLDPGRFARCLVDASDTSQGRGPDDLQRLVPLLDSNRLEAQCIGAFYLCAEAAIKSLQGKTKVFSDIGAIQSLKRLVSYSTNGTKSALAKRALRLLGEEVPRPILPSVPSWKEAEVQTWLQQIGFSKYCESFREQQVDGDLLLRLTEEELQTDLGMKSGITRKRFFRELTELKTFANYSTCDRSNLADWLGSLDPRFRQYTYGLVSCGLDRSLLHRVSEQQLLEDCGIHLGVHRARILTAAREMLHSPLPCTGGKPSGDTPDVFISYRRNSGSQLASLLKVHLQLHGFSVFIDVEKLEAGKFEDKLIQSVMGARNFVLVLSPGALDKCMQDHDCKDWVHKEIVTALSCGKNIVPIIDGFEWPEPQVLPEDMQAVLTFNGIKWSHEYQEATIEKIIRFLQGRSSRDSSAGSDTSLEGAAPMGPT"}}, "target": "the molecule itself", "experiment": "cryo-EM structure"}
{"protein": "B1", "values": [{"measurement": "stoichiometry N", "value": 8}]}
